Measurements reported in USRE39034E1, “Molecule involved in binding of sperm to egg surfaces and procedures for use of this molecule to enhance or decrease potential fertility” (The Penn State Research Foundation, priority 1996, dated 2006).

B1: saposin D: human saposin produced by proteolytic cleavage of prosaposin (protein, UniProt P07602 405-486, looked up)
Saposin-D: DGGFCEVCKKLVGYLDRNLEKNSTKQEILAALEKGCSFLPDPYQKQCDQFVAEYEPVLIEILVEVMDPSFVCLKIGACPSAH
modifications: Saposin-D
notes: human saposin produced by proteolytic cleavage of prosaposin
B2: saposin C: human saposin produced by proteolytic cleavage of prosaposin (protein, UniProt P07602 311-390, looked up)
Saposin-C: SDVYCEVCEFLVKEVTKLIDNNKTEKEILDAFDKMCSKLPKSLSEECQEVVDTYGSSILSILLEEVSPELVCSMLHLCSG
modifications: Saposin-C
notes: as for B1
B3: saposin A: human saposin produced by proteolytic cleavage of prosaposin (protein, UniProt P07602 60-142, looked up)
Saposin-A: SLPCDICKDVVTAAGDMLKDNATEEEILVYLEKTCDWLPKPNMSASCKEIVDSYLPVILDIIKGEMSRPGEVCSALNLCESLQ
modifications: Saposin-A
notes: as for B1
B4: human saposin B: human saposin produced by proteolytic cleavage of prosaposin (protein, UniProt P07602 195-273, looked up)
Saposin-B: GDVCQDCIQMVTDIQTAVRTNSTFVQALVEHVKEECDRLGPGMADICKNYISQYSEIAIQMMMHMQPKEICALVGFCDE
modifications: Saposin-B
notes: as for B1

Tested on: frozen-thawed rooster sperm
Assay: Restoration of binding capability of frozen-thawed rooster sperm to hen's egg membrane extract (Examples 1, 2, 6, 7)
Type: cell-based
Conditions: FIG. 2
Excerpt: Although the invention has been described generally above, particular examples give additional illustration of the products and method steps typical of the present polypeptide and uses thereof. The data presented in FIGS. 1 to 3 and 6 to 9 show the number of sperm bound per unit area of laid hen's egg perivitelline membrane, or data derived from such binding, or bound to a substrate prepared using an extract from such perivitelline membranes pursuant to the method disclosed in co-pending patent application Ser. No. 08/234,448. Except when noted, native protein extracted from rooster sperm with UPSEBP activity was used.
Freshly collected rooster sperm were cryopreserved, thawed and processed to remove glycerol. One portion of the thawed sperm received crude UPSEBP at a concentration of 2 μg protein per 10^6 sperm. Samples containing 1-10×10^6 sperm were placed into wells coated with an extract of hen's egg membrane and incubated 180 minutes. Non-bound sperm were removed by washing, and bound sperm were stained with diamido-2-phenylindole and counted using an epifluorescent microscope.
Rooster sperm subjected to a cryopreservation cycle were treated with increasing amounts of partially purified UPSEBP and subject to a standard binding assay, together with aliquots of unfrozen (fresh) sperm.
Frozen-thawed turkey sperm were exposed to rooster UPSEBP or semi-purified SGP-1.

Molecule	Restoration of binding (in words)	Binding restored, percent of that obtained by exposure to UPSEBP (UPSEBP 2 μg/million sperm)
B1	ineffective at restoring binding	
B2	ineffective at restoring binding	
B3	ineffective at restoring binding	
B4		about 70%
